According to paper PMC4197845:
pKd: −log10 of the molar value. Read-outs that look alike come from different tables or passages of the source.

What was measured:
[1] = target: epidermal growth factor receptor on live cells (human (endogenous in UM-SCC-14C and A431)) (UniProt P00533); assay: radioligand binding
[2] = target: epidermal growth factor receptor on live cells (human (endogenous in UM-SCC-14C and A431)) (UniProt P00533); assay: radioligand binding; remark: listed apart in the source

pKd [1]: 8.12
pKd [2]: 8.15
Substance: bi-paratopic nanobody 9G8-7D12 (bispecific antibody)
